The target in assay [1] is T1, HLA-B*0702 molecule on HLA-B*0702 transfected TAP deficient T2 cells (T2-B7) (human).
T1 construct: MHC class I molecule without a defined peptide, on the surface of T2-B7 cells; its surface level was read with the anti-HLA-B7 mAb ME.1 by flow cytometry; also called HLA-B7
The assay is described as follows: MHC stabilization assay on T2-B7 cells, flow cytometry with ME.1; ratio of concentration giving 20% of maximal binding against reference peptide R10TV. The protocol:
The relative avidity of hTERT derived peptides for HLA-*B0702 was measured by using a MHC stabilization assay on HLAB0702 transfected T2 (T2-B7) cells in comparison with a reference peptide (R10TV) as described (Rohrlich et al. Int Immunol 2003; 15:765-72). Briefly, T2-B7 were incubated overnight at 2×10⁵ cells/well in 96-well plates in serum free medium AIM-V (Invitrogen Corp., Gibco), supplemented with 100 ng/ml of human β2-microglobulin, in the absence (negative control) or in the presence of either reference peptide […] or hTERT peptides at various final concentrations (100, 10, 1 and 0.1 μM). T2-B7 cells were labelled with a saturating concentration of ME.1 an anti-HLA-B7 mAb, then washed twice and finally stained with FITC-conjugated F(ab′)2 goat anti-mouse Ig before flow cytometry.
Background: A flow cytometer gives signals particle by particle.

In assay [2] the target is T1, HLA-B*0702 molecule on HLA-B*0702 …. The assay is described as follows: MHC stabilization assay on T2-B7 cells, ME-1 staining; ratio of concentration inducing 20% of HLA-B*0702 expression against reference peptide CMV265-274. From the text:
The protocol used has been described previously (Rohrlich et al., 2003).

Regarding APRCRAVRSL (Synthetic peptide, minimum purity 80%) [hTERT peptide p4 (APRCRAVRSL, residues 4-13)], the relative avidity in assay [1] is 0.3 ratio.

B1: hTERT peptide analogue p444* (APRRLVQLL) (peptide)
peptide: APRRLVQLL
notes: Synthetic peptide (Epytop); also called optimized p444*
For B1, the “RA (relative affinity)” value in assay [2] was found to be 1.4 ratio. For the molecule MPRAPRCRA (Synthetic peptide, minimum purity 80%) [hTERT peptide p1 (MPRAPRCRA, residues 1-9)], in assay [1], the relative avidity worked out at 0.4 ratio. As for RPSLTGARRL (Synthetic peptide, minimum purity 80%) [hTERT peptide p351 (RPSLTGARRL, residues 351-360)], the relative avidity in assay [1] was determined as 1.5 ratio.

As to APSFRQVSCL (Synthetic peptide, minimum purity 80%) [hTERT peptide p68 (APSFRQVSCL, residues 68-77)], the relative avidity in assay [1] stood at 0.4 ratio.

The values above are taken from patent publication US20090175892A1 (INSTITUT PASTEUR, published 2009).
